From patent US20200002405A1 (ADMINISTRATORS OF THE TULANE EDUCATIONAL FUND, published 2020)
Read-outs that look alike come from different tables or passages of the source.

T1: LCMV WE strain GP (LCMV, WE strain, UniProt P07399 2-498)
T1 construct: whole, on cells
T1 sequence: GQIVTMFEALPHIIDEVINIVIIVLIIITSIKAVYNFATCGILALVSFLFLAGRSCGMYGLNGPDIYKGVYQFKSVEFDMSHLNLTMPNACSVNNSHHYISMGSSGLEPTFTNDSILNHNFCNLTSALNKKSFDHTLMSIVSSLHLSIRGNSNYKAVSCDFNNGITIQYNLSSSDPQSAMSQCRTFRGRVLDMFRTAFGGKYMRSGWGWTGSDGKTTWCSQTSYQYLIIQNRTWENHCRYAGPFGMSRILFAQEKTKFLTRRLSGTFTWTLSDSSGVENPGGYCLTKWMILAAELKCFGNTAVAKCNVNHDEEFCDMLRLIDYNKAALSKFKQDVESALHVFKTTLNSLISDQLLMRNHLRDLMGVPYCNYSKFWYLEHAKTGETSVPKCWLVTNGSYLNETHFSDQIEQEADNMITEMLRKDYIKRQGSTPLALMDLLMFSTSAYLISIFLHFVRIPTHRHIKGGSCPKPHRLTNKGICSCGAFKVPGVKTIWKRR

T2: LASV Josiah (lineage IV) glycoprotein, full-length GP (Lassa virus, Josiah strain, UniProt P08669 2-491)
T2 sequence: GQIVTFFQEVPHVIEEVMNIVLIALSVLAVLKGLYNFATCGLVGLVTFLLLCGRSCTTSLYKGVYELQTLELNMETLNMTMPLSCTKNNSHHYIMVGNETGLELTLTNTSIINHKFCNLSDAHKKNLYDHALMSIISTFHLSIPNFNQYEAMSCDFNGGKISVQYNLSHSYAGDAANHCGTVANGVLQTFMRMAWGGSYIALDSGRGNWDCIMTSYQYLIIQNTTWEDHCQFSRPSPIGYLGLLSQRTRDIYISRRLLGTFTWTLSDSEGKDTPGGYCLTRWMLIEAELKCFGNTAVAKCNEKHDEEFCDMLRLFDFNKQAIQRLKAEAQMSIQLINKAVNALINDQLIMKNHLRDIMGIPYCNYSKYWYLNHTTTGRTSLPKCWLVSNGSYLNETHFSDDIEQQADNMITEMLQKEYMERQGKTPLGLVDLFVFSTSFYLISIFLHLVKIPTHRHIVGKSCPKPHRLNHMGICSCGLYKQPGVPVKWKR

B1: 10.4B (antibody)
VH: DQVQLVQSGGGVVQPGRSLRVSCVTSGFNFRAYGMHWVRQIPGKGLEWVADIWSAETNRHYADSVKGRFTISRDNSKSTLYLQMNSLRAEDTGVYFCAKARPGYDYVVDLWGQGTLVIVSSASTKGPSVFPLAPCSRSTSGGTAALGCLVKDYFPEPVTVSWNSGALTSGVHTFPAVLQSSGL
VL: DEIVLTQSPSSLSASVGDRVTITCRASRDINTYLGWFQQRPGKAPKSLIYGASNLQNGVPSRFSGSGSGTYFTLTINGLQTEDFATYYCQQYSIYPLSLGGGTKADMKRTVAAPSVFIFPPSDEQLKSGTASVVCLLNNFYPREAKVQWKVDNALQSGNSQESVTEQDSKDSTYSLSSTLTLSKADYEKHKVYACEVTHQGLSSP
B2: 9.8A (antibody, V domains shown)
VH: EVQLVQSGGRLVQPGGSLRLSCVASGFTFSSHAMSWVRQAPGKGLEWVSGFSGSSGTTKYADSVKGRFTISRDNSKKTLYLQMNSLRAEDTAVYYCAKGFSPFRGVQFPYFDYWGQGTLVTVSS
VL: DIVMTQSPSTLSASVGDRVTITCRASQSIDRWLAWYQQKPGKAPKLLIYQASSLERGVPSRFSGSGSGTEFTLTISSLQPDDFATYYCQQYNGYPLTFGGGTKVEIKR
B3: 25.6A (antibody, V domains shown)
VH: QVQLQESGGGLVKAGGSLRLSCAASGFMFERYSLHWVRQTPGKGLEWVSSISSLSGSHINYADSVKGRFTISRDNAKNSLSLQMNSLRVEDTAIYYCARDRRSGSSPVPLDVWGQGTTVTVSS
VL: DLPVLTQPASVSGSPGQSITISCTGTSSDVGAYNYVSWYQQHPGKAPKLIIYEVKIRPSGVSNRFSGSKSGNTASLTISGLQAEDEADYFCSSYSTNSPWVFGGGTKVTVLR
B4: NE13 (antibody, V domains shown)
VH: EVQLVESGGGLVKPGGSLRLSCVASGFTFSSYSMNWVRQAPGKGLEWVSSISSGSSYIEYADSVKGRLTISRDNAKKSLYLQLNSLRAEDTAVYYCARHTARIDSYHGMDVWGQGTTVTVSS
VL: ETTLTQSPGTLSLSPGERATLSCRASQSVSSTYLAWYQQKPGQSPRLLIYGASSRATGIPDRFSGSGSGTQFTLTINRLEPEDFAVYYCQQFGSPWTFGQGTKVEIKR
B5: 8.11G (antibody, V domains shown)
VH: QVQLQESGPGLVKPSETLSLTCSISGVSTRNYYWSWIRQSPGKGLEWIGYIFNIGTTNYNPSLKSRLTISVDTSKNQFSLKITSVTAADTAVYYCASGFEYGDYTFDYWGQGTPVTVSS
VL: EIVLTQSPATLSVSPGGRASLSCRASQSIGDKLSWYQQKPGQAPRLVIYGAYTRATDISPRFSGSRSGTDFNLTISRMQSGDFAVYFCQQYENWPRTFGQGTKLEIKR
B6: 18.5C (antibody)
VH: DEVQLVESGGGLVRPGGSLRLSCAAAGFTFKSYSMNWVRQAPGRGLEWVSSITSGGSKTYYADVVKGRFTVSRDNAKQSLYLQMNSLRAEDTAIYFCARSLHSTSQPSYMDVWGRKITVIVSSASTKGPSVFPLAPSSKSTSGGTAALGCLVKDYFPEPVTVSWNSGALTSGVHTFPAVLQSSGLYSLSSVVTVPSSSLGTQTYICNVNHKPSNTKVDKRVEPKSCDKTHTCPPCPAPELLGGPSVFLFPPKPKDTLMISRTPEVTC
VL: DDIQMTQSPGTLSLSPGERATLSCRASQSVISYYVAWYQHKGGQAPRLLIYGASSRATGVPDRFSGSGSGTDFTLTISSLEPEDFALYYCQYYGSSPLWAFGQGTKVEIKRTVAAPSVFIFPPSDEQLKSGTASVVCLLNNFYPREAKVQWKVDNALQSGNSQESVTEQDSKDSTYSLSSTLTLSKADYEKHKVYACEVTHQGLSSPVTKSFNRGEC
B7: 19.7E (antibody, V domains shown)
VH: EVQLVESGGGLVRPGGSLRLSCAASGFSFSSYSMHWVRHVPGKGLVWVSYINSDGSTKIYADSVKGRFSISRDNAKNKLYLQMDSLRVEDTAVYSCVRLVHYDWSPFVWGQGTLVTVSS
VL: EIVLTQSPSTLSASVGDRVTITCRASQSINNWLAWYQEKPGKAPKLLINKASSLESGVPSRFSGSGSGTEFTLTITSLQPDDFATYYCQQYNSNSWTFGQGTKVDMKR
B8: 25.10C (antibody, V domains shown)
VH: QVQLQESGGGLVKPGGSLRLSCTASGFNFNKYNMNWVRQAPGKGLEWVSSISALSTYIYYADSLKGRFTVSRDNAKNSLFLQMNSLRDDDTAVYYCAREIRRASTWSADLWGRGTLVTVSS
VL: DIQMTQSPSSLSASVGDRVIITCRASQSISSSLNWYQQKPGKAPKLLIYAAVNLETGVPSRFSGSGFGTDFTLAISNVQPEDFATYYCQQSDTRTFGRGTKLDVKR
B9: 36.9F (antibody, V domains shown)
VH: EVQLVQSGGGLVKAGGSLKLSCGASGFTFSSYSMSWVRQAPGKGLEWVSYISSGGSSIHYADSVKGRFTISRDNAKNSLYLQMKNLRVDDTGRYYCVRDPRSGISGRYGMDVWGQGTTVTVSS
VL: DIVMTQSPDSLAVSLGERATINCKSSQTVLFTSYYVAWYQQKPGQPPKLLFSGASSRESGVPDRFSAGGSGTDFYLTINSLQAEDVADYYCQQYHTPPFTFGGGTKLEIRR

Tests used:
LCMV WE strain GP = target: T1, LCMV WE strain GP; assay: immunofluorescence, 293T cells transfected with GP plasmid
[1] = target: LASV 237 (lineage III) glycoprotein (Lassa virus, strain 237); assay: cell-based or functional assay
[2] = target: LASV A19 (lineage II) glycoprotein (Lassa virus, strain A19); assay: cell-based or functional assay
[3] = target: T2, LASV Josiah (lineage IV) glycoprotein, …; assay: cell-based or functional assay
[4] = target: LASV Pinneo (lineage I) glycoprotein (Lassa virus, strain Pinneo); assay: cell-based or functional assay
[5] = target: T2, LASV Josiah (lineage IV) glycoprotein, …; assay: cell-based or functional assay; remark: listed apart in the source

Row | Binder | binding result (LCMV WE strain GP) | IC50 (neutralization) [1] | IC80 (neutralization) [1] | IC50 (neutralization) [2] | IC80 (neutralization) [2] | IC50 (neutralization) [3] | IC80 (neutralization) [3] | IC50 (neutralization) [4] | IC80 (neutralization) [4] | IC50 (neutralization) [5] | IC80 (neutralization) [5]
1 | B1 | no binding | > 20 µg/mL | > 20 µg/mL | > 20 µg/mL | > 20 µg/mL | > 20 µg/mL | > 20 µg/mL | > 20 µg/mL | > 20 µg/mL | > 10 µg/mL | > 10 µg/mL
2 | B2 |  | 0.193 µg/mL | 0.494 µg/mL | 0.15 µg/mL | 0.527 µg/mL | 1.31 µg/mL | 2.42 µg/mL | 1 µg/mL | 2.59 µg/mL | 0.139 µg/mL | 0.253 µg/mL
3 | B3 |  | 0.169 µg/mL | 0.603 µg/mL | 0.483 µg/mL | 3.51 µg/mL | 0.743 µg/mL | 2 µg/mL | 1.83 µg/mL | 3.11 µg/mL | 0.188 µg/mL | 0.3 µg/mL
4 | B4 | no binding |  |  |  |  |  |  |  |  |  | 
5 | B5 | no binding | 1.17 µg/mL | 3.64 µg/mL | 1.48 µg/mL | 4.59 µg/mL | 0.361 µg/mL | 1.74 µg/mL | 3.25 µg/mL | 10.5 µg/mL | > 10 µg/mL | > 10 µg/mL
6 | B6 |  | 0.621 µg/mL | 3.23 µg/mL | 1.2 µg/mL | 4.63 µg/mL | 1.94 µg/mL | 3.98 µg/mL | 6.11 µg/mL | 12.2 µg/mL | > 10 µg/mL | > 10 µg/mL
7 | B7 | no binding |  |  |  |  |  |  |  |  |  | 
8 | B8 | no binding |  |  |  |  |  |  |  |  |  | 
9 | B9 |  | 4.69 µg/mL | 19.4 µg/mL | 13 µg/mL | > 20 µg/mL | 18 µg/mL | > 20 µg/mL | 6.98 µg/mL | > 20 µg/mL | 0.57 µg/mL | 2.23 µg/mL
